Legend:
Test in all cases: cell-based or functional assay
[1] = target: hCXCL10R75A.0054-G1T4k.one//VHn-G1T4h.one.H435R (human) [IgG part: P01857]
[2] = target: hCXCL10R75A.0017-G1T4k.one//VHn-G1T4h.one.H435R (human) [IgG part: P01857]
[3] = target: hCXCL10R75A.0018-G1T4k.one//VHn-G1T4h.one.H435R (human) [IgG part: P01857]
[4] = target: hCXCL10R75A.0016-G1T4k.one//VHn-G1T4h.one.H435R (human) [IgG part: P01857]
[5] = target: hCXCL10R75A.0004-G1T4k.one//VHn-G1T4h.one.H435R (human) [IgG part: P01857]
[6] = target: hCXCL10R75A.0047-G1T4k.one//VHn-G1T4h.one.H435R (human) [IgG part: P01857]
[7] = target: hCXCL10R75A.0005-G1T4k.one//VHn-G1T4h.one.H435R (human) [IgG part: P01857]
[8] = target: hCXCL10R75A.0025-G1T4k.one//VHn-G1T4h.one.H435R (human) [IgG part: P01857]
[9] = target: hCXCL10R75A.0001-G1T4k.one//VHn-G1T4h.one.H435R (human) [IgG part: P01857]
[10] = target: hCXCL10R75A.0015-G1T4k.one//VHn-G1T4h.one.H435R (human) [IgG part: P01857]
[11] = target: hCXCL10R75A.0009-G1T4k.one//VHn-G1T4h.one.H435R (human) [IgG part: P01857]
[12] = target: hCXCL10R75A.0044-G1T4k.one//VHn-G1T4h.one.H435R (human) [IgG part: P01857]
[13] = target: hCXCL10R75A.0042-G1T4k.one//VHn-G1T4h.one.H435R (human) [IgG part: P01857]
[14] = target: hCXCL10R75A.0007-G1T4k.one//VHn-G1T4h.one.H435R (human) [IgG part: P01857]
[15] = target: hCXCL10R75A.0053-G1T4k.one//VHn-G1T4h.one.H435R (human) [IgG part: P01857]
[16] = target: hCXCL10R75A.0038-G1T4k.one//VHn-G1T4h.one.H435R (human) [IgG part: P01857]
[17] = target: hCXCL10R75A.0029-G1T4k.one//VHn-G1T4h.one.H435R (human) [IgG part: P01857]
[18] = target: hCXCL10R75A-G1T4k.one//VHn-G1T4h.one.H435R (human) [IgG part: P01857]
[19] = target: hCXCL10R75A.0033-G1T4k.one//VHn-G1T4h.one.H435R (human) [IgG part: P01857]
[20] = target: hCXCL10R75A.0049-G1T4k.one//VHn-G1T4h.one.H435R (human) [IgG part: P01857]
[21] = target: hCXCL10R75A.0019-G1T4k.one//VHn-G1T4h.one.H435R (human) [IgG part: P01857]
[22] = target: hCXCL10R75A.0031-G1T4k.one//VHn-G1T4h.one.H435R (human) [IgG part: P01857]
[23] = target: hCXCL10R75A.0027-G1T4k.one//VHn-G1T4h.one.H435R (human) [IgG part: P01857]
[24] = target: hCXCL10R75A.0041-G1T4k.one//VHn-G1T4h.one.H435R (human) [IgG part: P01857]
[25] = target: hCXCL10R75A.0010-G1T4k.one//VHn-G1T4h.one.H435R (human) [IgG part: P01857]
[26] = target: hCXCL10R75A.0036-G1T4k.one//VHn-G1T4h.one.H435R (human) [IgG part: P01857]
[27] = target: hCXCL10R75A.0023-G1T4k.one//VHn-G1T4h.one.H435R (human) [IgG part: P01857]
[28] = target: hCXCL10R75A.0034-G1T4k.one//VHn-G1T4h.one.H435R (human) [IgG part: P01857]
hCXCL10R75A.0034-G1T4k.one//VHn-G1T4h.one.H435R (human) [IgG part: P01857], sequence (P01857 other isoform, or with tags, fused parts or gaps H435R H435R, chain 1 of 2): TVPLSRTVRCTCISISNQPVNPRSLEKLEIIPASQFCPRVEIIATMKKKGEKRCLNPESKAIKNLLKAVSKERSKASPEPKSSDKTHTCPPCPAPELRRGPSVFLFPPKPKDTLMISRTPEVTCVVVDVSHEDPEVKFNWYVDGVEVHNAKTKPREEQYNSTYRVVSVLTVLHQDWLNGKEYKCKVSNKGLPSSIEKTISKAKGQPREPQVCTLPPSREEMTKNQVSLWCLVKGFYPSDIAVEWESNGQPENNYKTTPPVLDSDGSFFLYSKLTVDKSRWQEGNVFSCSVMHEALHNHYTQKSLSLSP
hCXCL10R75A.0034-G1T4k.one//VHn-G1T4h.one.H435R (human) [IgG part: P01857], sequence (P01857 other isoform, or with tags, fused parts or gaps H435R H435R, chain 2 of 2): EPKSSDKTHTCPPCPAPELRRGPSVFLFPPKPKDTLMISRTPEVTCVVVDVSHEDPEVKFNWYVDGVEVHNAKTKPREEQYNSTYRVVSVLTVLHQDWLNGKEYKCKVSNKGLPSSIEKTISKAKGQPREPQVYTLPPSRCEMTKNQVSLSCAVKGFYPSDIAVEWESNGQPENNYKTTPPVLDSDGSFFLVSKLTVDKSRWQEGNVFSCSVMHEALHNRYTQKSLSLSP

human dipeptidyl peptidase IV (human DPPIV, hDPPIV) (Biolegend, 764102), sequence (P27487 29-766 limits assumed): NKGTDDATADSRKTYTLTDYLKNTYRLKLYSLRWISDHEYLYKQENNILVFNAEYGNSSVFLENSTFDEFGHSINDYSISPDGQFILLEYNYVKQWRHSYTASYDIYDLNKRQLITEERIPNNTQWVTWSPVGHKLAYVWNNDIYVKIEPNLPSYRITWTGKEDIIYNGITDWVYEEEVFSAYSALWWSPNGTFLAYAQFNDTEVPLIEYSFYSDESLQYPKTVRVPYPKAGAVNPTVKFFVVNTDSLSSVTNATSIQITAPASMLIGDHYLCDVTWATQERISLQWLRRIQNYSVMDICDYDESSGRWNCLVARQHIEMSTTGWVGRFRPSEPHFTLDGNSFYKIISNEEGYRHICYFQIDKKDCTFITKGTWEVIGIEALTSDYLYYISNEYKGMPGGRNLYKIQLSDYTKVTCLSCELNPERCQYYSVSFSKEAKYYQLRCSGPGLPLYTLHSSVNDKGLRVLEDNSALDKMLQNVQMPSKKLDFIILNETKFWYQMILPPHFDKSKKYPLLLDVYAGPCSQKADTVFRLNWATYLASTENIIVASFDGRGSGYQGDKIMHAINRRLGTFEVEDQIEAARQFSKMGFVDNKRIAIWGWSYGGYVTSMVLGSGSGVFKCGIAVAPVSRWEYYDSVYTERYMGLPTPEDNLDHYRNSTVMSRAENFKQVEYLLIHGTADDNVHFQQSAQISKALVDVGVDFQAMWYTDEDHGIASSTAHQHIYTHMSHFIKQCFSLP
hCXCL10R75A.0001-G1T4k.one//VHn-G1T4h.one.H435R (human) [IgG part: P01857], sequence (P01857 other isoform, or with tags, fused parts or gaps H435R H435R, chain 1 of 2): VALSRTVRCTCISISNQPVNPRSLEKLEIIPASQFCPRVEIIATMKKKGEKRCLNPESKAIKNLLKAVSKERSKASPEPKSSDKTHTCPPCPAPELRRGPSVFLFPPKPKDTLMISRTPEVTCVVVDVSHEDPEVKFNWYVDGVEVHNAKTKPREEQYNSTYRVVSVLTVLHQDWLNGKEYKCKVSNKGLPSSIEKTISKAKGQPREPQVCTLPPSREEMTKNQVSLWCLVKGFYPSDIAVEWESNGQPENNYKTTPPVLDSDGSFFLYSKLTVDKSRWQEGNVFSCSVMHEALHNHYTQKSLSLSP
hCXCL10R75A.0001-G1T4k.one//VHn-G1T4h.one.H435R (human) [IgG part: P01857], sequence (P01857 other isoform, or with tags, fused parts or gaps H435R H435R, chain 2 of 2): as the sequence (P01857 other isoform, or with tags, fused parts or gaps H435R H435R, chain 2 of 2) above
hCXCL10R75A.0036-G1T4k.one//VHn-G1T4h.one.H435R (human) [IgG part: P01857], sequence (P01857 other isoform, or with tags, fused parts or gaps H435R H435R, chain 1 of 2): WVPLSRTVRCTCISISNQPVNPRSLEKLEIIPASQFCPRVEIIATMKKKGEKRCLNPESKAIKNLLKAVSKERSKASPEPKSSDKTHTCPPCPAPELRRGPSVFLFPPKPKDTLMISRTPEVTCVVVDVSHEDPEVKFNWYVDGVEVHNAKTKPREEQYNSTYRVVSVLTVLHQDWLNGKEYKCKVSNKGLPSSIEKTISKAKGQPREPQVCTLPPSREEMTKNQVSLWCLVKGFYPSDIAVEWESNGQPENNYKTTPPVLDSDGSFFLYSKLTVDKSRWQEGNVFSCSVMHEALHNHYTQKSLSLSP
hCXCL10R75A.0036-G1T4k.one//VHn-G1T4h.one.H435R (human) [IgG part: P01857], sequence (P01857 other isoform, or with tags, fused parts or gaps H435R H435R, chain 2 of 2): as the sequence (P01857 other isoform, or with tags, fused parts or gaps H435R H435R, chain 2 of 2) above
hCXCL10R75A.0019-G1T4k.one//VHn-G1T4h.one.H435R (human) [IgG part: P01857], sequence (P01857 other isoform, or with tags, fused parts or gaps H435R H435R, chain 1 of 2): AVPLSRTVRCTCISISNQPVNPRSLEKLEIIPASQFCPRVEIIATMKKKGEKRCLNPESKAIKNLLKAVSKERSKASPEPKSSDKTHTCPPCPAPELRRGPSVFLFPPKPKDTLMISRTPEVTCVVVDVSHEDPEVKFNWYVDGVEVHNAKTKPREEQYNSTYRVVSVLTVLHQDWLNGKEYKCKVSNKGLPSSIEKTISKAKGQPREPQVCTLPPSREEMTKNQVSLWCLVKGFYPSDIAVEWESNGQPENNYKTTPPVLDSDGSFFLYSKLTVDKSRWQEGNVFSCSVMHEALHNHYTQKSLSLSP
hCXCL10R75A.0019-G1T4k.one//VHn-G1T4h.one.H435R (human) [IgG part: P01857], sequence (P01857 other isoform, or with tags, fused parts or gaps H435R H435R, chain 2 of 2): as the sequence (P01857 other isoform, or with tags, fused parts or gaps H435R H435R, chain 2 of 2) above
hCXCL10R75A.0016-G1T4k.one//VHn-G1T4h.one.H435R (human) [IgG part: P01857], sequence (P01857 other isoform, or with tags, fused parts or gaps H435R H435R, chain 1 of 2): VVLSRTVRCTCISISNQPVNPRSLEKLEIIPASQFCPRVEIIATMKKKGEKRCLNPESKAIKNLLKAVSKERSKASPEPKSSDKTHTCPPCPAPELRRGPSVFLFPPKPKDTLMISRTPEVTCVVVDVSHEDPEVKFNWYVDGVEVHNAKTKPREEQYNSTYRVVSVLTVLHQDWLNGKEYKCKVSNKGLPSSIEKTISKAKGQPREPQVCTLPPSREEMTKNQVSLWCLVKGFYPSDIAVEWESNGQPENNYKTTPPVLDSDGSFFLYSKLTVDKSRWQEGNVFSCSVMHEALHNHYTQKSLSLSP
hCXCL10R75A.0016-G1T4k.one//VHn-G1T4h.one.H435R (human) [IgG part: P01857], sequence (P01857 other isoform, or with tags, fused parts or gaps H435R H435R, chain 2 of 2): as the sequence (P01857 other isoform, or with tags, fused parts or gaps H435R H435R, chain 2 of 2) above
hCXCL10R75A.0017-G1T4k.one//VHn-G1T4h.one.H435R (human) [IgG part: P01857], sequence (P01857 other isoform, or with tags, fused parts or gaps H435R H435R, chain 1 of 2): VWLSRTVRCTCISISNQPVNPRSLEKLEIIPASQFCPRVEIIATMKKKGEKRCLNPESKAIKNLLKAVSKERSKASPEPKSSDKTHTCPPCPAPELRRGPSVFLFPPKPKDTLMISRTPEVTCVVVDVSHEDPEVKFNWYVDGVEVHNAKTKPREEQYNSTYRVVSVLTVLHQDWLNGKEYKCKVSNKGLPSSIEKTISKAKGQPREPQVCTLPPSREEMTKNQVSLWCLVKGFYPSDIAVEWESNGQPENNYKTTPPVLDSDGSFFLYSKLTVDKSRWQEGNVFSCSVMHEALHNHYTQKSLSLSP
hCXCL10R75A.0017-G1T4k.one//VHn-G1T4h.one.H435R (human) [IgG part: P01857], sequence (P01857 other isoform, or with tags, fused parts or gaps H435R H435R, chain 2 of 2): as the sequence (P01857 other isoform, or with tags, fused parts or gaps H435R H435R, chain 2 of 2) above
hCXCL10R75A.0047-G1T4k.one//VHn-G1T4h.one.H435R (human) [IgG part: P01857], sequence (P01857 other isoform, or with tags, fused parts or gaps H435R H435R, chain 1 of 2): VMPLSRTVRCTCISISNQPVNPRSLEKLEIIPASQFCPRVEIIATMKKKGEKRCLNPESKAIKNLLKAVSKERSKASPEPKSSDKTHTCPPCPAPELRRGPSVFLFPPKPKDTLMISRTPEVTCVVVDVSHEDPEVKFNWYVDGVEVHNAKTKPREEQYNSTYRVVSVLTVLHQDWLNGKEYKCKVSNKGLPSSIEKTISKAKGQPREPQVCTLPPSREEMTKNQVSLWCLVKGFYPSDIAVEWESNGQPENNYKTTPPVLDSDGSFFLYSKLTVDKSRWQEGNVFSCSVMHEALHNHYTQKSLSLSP
hCXCL10R75A.0047-G1T4k.one//VHn-G1T4h.one.H435R (human) [IgG part: P01857], sequence (P01857 other isoform, or with tags, fused parts or gaps H435R H435R, chain 2 of 2): as the sequence (P01857 other isoform, or with tags, fused parts or gaps H435R H435R, chain 2 of 2) above

Substance: human dipeptidyl peptidase IV (human DPPIV, hDPPIV) (Biolegend, 764102) (from UniProt P27487 29-766) (enzyme)
- mass change after hDPPIV treatment (LC/MS) [1]: 0 Da
- mass change after hDPPIV treatment (LC/MS) [2]: 0 Da
- mass change after hDPPIV treatment (LC/MS) [3]: 0 Da
- mass change after hDPPIV treatment (LC/MS) [4]: 1 Da
- mass change after hDPPIV treatment (LC/MS) [5]: 1 Da
- mass change after hDPPIV treatment (LC/MS) [6]: 0 Da
- mass change after hDPPIV treatment (LC/MS) [7]: -1 Da
- mass change after hDPPIV treatment (LC/MS) [8]: 0 Da
- mass change after hDPPIV treatment (LC/MS) [9]: 171 Da
- mass change after hDPPIV treatment (LC/MS) [10]: 0 Da
- mass change after hDPPIV treatment (LC/MS) [11]: 1 Da
- mass change after hDPPIV treatment (LC/MS) [12]: 0 Da
- mass change after hDPPIV treatment (LC/MS) [13]: 1 Da
- mass change after hDPPIV treatment (LC/MS) [14]: 1 Da
- mass change after hDPPIV treatment (LC/MS) [15]: -2 Da
- mass change after hDPPIV treatment (LC/MS) [16]: 0 Da
- mass change after hDPPIV treatment (LC/MS) [17]: -1 Da
- mass change after hDPPIV treatment (LC/MS) [18]: 195 Da
- mass change after hDPPIV treatment (LC/MS) [19]: 2 Da
- mass change after hDPPIV treatment (LC/MS) [20]: 1 Da
- mass change after hDPPIV treatment (LC/MS) [21]: 1 Da
- mass change after hDPPIV treatment (LC/MS) [22]: 0 Da
- mass change after hDPPIV treatment (LC/MS) [23]: 1 Da
- mass change after hDPPIV treatment (LC/MS) [24]: 0 Da
- mass change after hDPPIV treatment (LC/MS) [25]: -1 Da
- mass change after hDPPIV treatment (LC/MS) [26]: 0 Da
- mass change after hDPPIV treatment (LC/MS) [27]: 1 Da
- mass change after hDPPIV treatment (LC/MS) [28]: 0 Da

Source: patent publication US20260217779A1
